Reference: patent US20110152166A1, “METHOD OF MODULATION OF PROTEIN PHOSPHORYLATION-DEPENDENT CONFORMATIONAL TRANSITIONS WITH LOW MOLECULAR WEIGHT COMPOUNDS” (priority 2006, published 2011)

Target: T1, Thr221-phosphorylated S6K11-364 (Rattus norvegicus, UniProt P67999)
T1 construct: Purified HA-S6K1-364 was incubated with synthetic S6K1 (rat) tail peptides; made in house; host or cells: COS7, co-transfected with myc-PDK1; anti-HA immunoprecipitate
Test: S6K1 in vitro reconstitution kinase assay with tail peptides
Format: biochemical
Source text: We established an in vitro reconstitution assay that could test a direct activation of the AGC kinase domain by the tail phosphate and characterize its cooperation with the HM and activation loop phosphates. The deletion mutant S6K11-364, which contains the kinase domain, but lacks the region of the tail containing the tail site and the HM as well as the C-terminal autoinhibitory domain, was expressed and purified from COS7 cells, either non-phosphorylated or phosphorylated at T221 in the activation loop, achieved by co-expression with PDK1. Purified S6K11-364 was then incubated with synthetic peptides of the S6K1 tail (residues 366-395: QTPVDS^371PDDSTLSESANQVFLGFT^389YVAPSV), which were either non-phosphorylated (S371/T389), phosphorylated at the tail site (pS371/T389), phosphorylated in the HM (S371/pT389) or phosphorylated at both sites (pS371/pT389). Subsequently, the kinase activity of S6K11-364 was determined.
Kinase assays for PKB, RSK, S6K, MSK were done as described previously (Frodin et al., 2002). […] After washing with 150 mM orthophosphoric acid, [^32P]phosphate incorporated into peptide substrate was quantified in an FLA-3000 apparatus (Fujifilm). […]

T1 sequence (P67999 24-387): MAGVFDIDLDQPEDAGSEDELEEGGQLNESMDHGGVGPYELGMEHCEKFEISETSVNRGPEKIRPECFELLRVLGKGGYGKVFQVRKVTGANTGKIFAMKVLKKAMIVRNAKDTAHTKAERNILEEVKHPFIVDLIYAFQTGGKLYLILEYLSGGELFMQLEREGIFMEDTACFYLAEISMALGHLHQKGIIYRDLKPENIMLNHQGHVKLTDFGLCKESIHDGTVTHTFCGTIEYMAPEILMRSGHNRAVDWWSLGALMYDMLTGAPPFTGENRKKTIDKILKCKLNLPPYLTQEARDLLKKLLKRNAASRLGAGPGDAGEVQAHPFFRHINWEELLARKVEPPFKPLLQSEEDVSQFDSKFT

For “S371/T389: synthetic S6K1 tail peptide (residues 366-395), non-phosphorylated”, the “stimulation of kinase activity (in words)” value was “did not stimulate”.
